{"source": "patent US9797889B2", "about": "“Activation of bioluminescence by structural complementation” (Promega Corporation, priority 2013, dated 2017)", "key": {"[1]": {"biological_target": "wild-type non-luminescent polypeptide (Oplophorus gracilirostris, UniProt Q9GV45, A31E/A60N/A81I/F95D/I117V/K70R/L54V/L99Q/M102K/P142E/Q151K/Q38R/Q45L/V71I/Y165I)", "sequence (Q9GV45 other isoform, or with tags, fused parts or gaps with the stated changes)": "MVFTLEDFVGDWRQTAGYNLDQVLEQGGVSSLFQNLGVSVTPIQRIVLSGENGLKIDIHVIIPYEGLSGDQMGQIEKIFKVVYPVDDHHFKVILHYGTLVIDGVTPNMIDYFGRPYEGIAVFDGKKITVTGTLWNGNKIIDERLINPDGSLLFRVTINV", "experiment": "NLpep mutant luminescence with wild-type NLpoly lysate (Examples 7, 8, 12, 13)", "details": "mutations based on alignment to fatty acid binding proteins"}, "5P": {"biological_target": "5P (Oplophorus gracilirostris, UniProt Q9GV45, A31E/A60N/A81I/D135N/F95D/G42A/G62A/G78A/G94A/G98A/I117V/K70R/L176M/L54V/L99Q/M102K/N171T/P142E/Q151K/Q38E/Q45L/V71I/Y165I)", "sequence (Q9GV45 other isoform, or with tags, fused parts or gaps with the stated changes)": "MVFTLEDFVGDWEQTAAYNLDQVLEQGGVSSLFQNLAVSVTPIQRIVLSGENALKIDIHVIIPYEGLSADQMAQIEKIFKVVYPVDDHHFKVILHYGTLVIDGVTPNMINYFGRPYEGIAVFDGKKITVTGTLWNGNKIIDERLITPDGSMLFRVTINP", "experiment": "Titration of 5P with NLpep88-HT (Example 47)", "assay_type": "biochemical", "details": "lower concentrations of NLpep88"}, "11S": {"biological_target": "11S (Oplophorus gracilirostris, UniProt Q9GV45, A31E/A60N/A81I/D135N/F58L/F95D/G42A/G62A/G78A/G94A/G98A/H120P/I103V/I117V/I134L/K70R/L176M/L54V/L73R/L99Q/M102E/N171T/P142E/Q151K/Q38E/Q45L/V71I/Y165I)", "experiment": "Substrate effect on 11S/NLpep79 Kd (Example 55)", "assay_type": "binding", "details": "saturating (50 uM) vs sub-saturating (5 uM) furimazine"}, "[2]": {"experiment": "Luminescence of NLpoly without NLpep (Example 57)", "assay_type": "biochemical", "details": "E. coli clarified lysate, NanoGlo+Fz", "experimental": "50 uL of each lysate and 50 uL NanoGlo+Fz were mixed and incubated for 5 min RT. Luminescence was measured on GloMax® Multi+ with 0.5 sec integration."}, "NLpep79": {"test_system": "NLpep79", "experiment": "Substrate specificity of NLpoly 5P and 11S with NLpep79 (Example 97)", "assay_type": "biochemical", "details": "with NLpep79, 11S compared with 5P", "experimental": "E. coli clarified lysates were prepared for NLpoly 5P or 11S as described previously. The NLpoly lysates were then serially diluted in steps of 10-fold into PBS+0.1% Prionex."}, "NLpep78-HT or NLpep79-HT": {"test_system": "NLpep78-HT or NLpep79-HT", "experiment": "NLpoly variant luminescence without NLpep, with NLpep78-HT or NLpep79-HT (Examples 62, 93)", "assay_type": "biochemical", "details": "E. coli expression culture", "experimental": "Single NLpoly variant colonies were inoculated with 200 uL minimal media and grown for 20 hrs at 37° C. on a shaker. 10 uL of the overnight culture were diluted into 190 uL fresh minimal media and grown for 20 hrs at 37° C. on a shaker. 10 uL of this overnight culture was then diluted into 190 uL auto-induction media (previously described) and grown for 18 hrs at 25° C. on a shaker. 10 uL of this expression culture was mixed with 40 uL of assay lysis buffer (previously described) without NLpep or NLpep78-HT (1:3,860 dilution) or NLpep79-HT (1:10,000 dilution) and shaken for 10 min at RT. 50 uL of NanoGlo+Fz was added and again shake for 10 min at RT. Luminescence was measured on GloMax® luminometer with 0.5 sec integration. FIGS. 105-107 illustrate the luminescence of various NLpolys in the absence of NLpep.\nA single colony of various NLpolys were inoculated individually into 200 uL minimal media and grown for 20 hrs at 37° C. on shaker. […] 10 uL of this overnight culture was diluted into 190 uL auto-induction media (previously described) and grow for 18 hrs at 25° C. on shaker. 10 uL of the expression culture was mixed with 40 uL of assay lysis buffer (previously described) without NLpep or with NLpep78-HT (1:3,860 dilution) or NLpep79-HT (1:10,000 dilution)."}, "[…] [3]": {"biological_target": "T1, […] (Oplophorus gracilirostris, UniProt Q9GV45)", "experiment": "Luminescence of non-luminescent polypeptide mutants upon complementation (Example 5, Table 4)", "details": "complementation with peptide […]; induced E. coli culture, NANOGLO reagent"}, "[…] [4]": {"biological_target": "T1, […]", "experiment": "Luminescence of non-luminescent polypeptide mutants upon complementation (Example 5, Table 4)", "details": "complementation with peptide […]; induced E. coli culture, NANOGLO reagent", "remark": "listed apart in the source"}}, "data": [{"molecule": "GVTAWRLCERILA [NLpep3]", "values": [{"measurement": "activity (luminescence) of single-mutation NLpep with wild-type NLpoly", "setting": "[1]", "result": "not likely to be tolerated"}]}, {"molecule": "DVTGWRLCERILA [NLpep2]", "values": [{"measurement": "activity (luminescence) of single-mutation NLpep with wild-type NLpoly", "setting": "[1]", "result": "retains/improves activity"}]}, {"molecule": "NVSGWGLFKKISN [NLpep88]", "values": [{"measurement": "luminescence of 5P titrated with NLpep88-HT", "setting": "5P", "result": "no increase in luminescence above 5P alone"}]}, {"molecule": "GVTGWRLCKRILA [NLpep4]", "values": [{"measurement": "activity (luminescence) of single-mutation NLpep with wild-type NLpoly", "setting": "[1]", "result": "retains/improves activity"}]}, {"molecule": "NVTGYRLFKKISN [NLpep79]", "values": [{"measurement": "affinity between 11S and NLpep79", "setting": "11S", "result": "increase the affinity"}]}, {"molecule": "GVTGWRLCERISA [NLpep5]", "values": [{"measurement": "activity (luminescence) of single-mutation NLpep with wild-type NLpoly", "setting": "[1]", "result": "retains/improves activity"}]}, {"molecule": "11S: NLpoly variant 11S (12S-51) (protein) MVFTLEDFVGDWEQTAAYNLDQVLEQGGVSSLLQNLAVSVTPIQRIVRSGENALKIDIHVIIPYEGLSADQMAQIEEVFKVVYPVDDHHFKVILPYGTLVIDGVTPNMLNYFGRPYEGIAVFDGKKITVTGTLWNGNKIIDERLITPDGSMLFRVTINS", "values": [{"measurement": "luminescence in the absence of NLpep relative to WT NLpoly", "setting": "[2]", "result": "~500", "unit": "fold"}, {"measurement": "substrate specificity for furimazine", "setting": "NLpep79", "result": "superior specificity for furimazine than 5P"}, {"measurement": "luminescence of NLpoly variant without NLpep or with NLpep78 or NLpep79", "setting": "NLpep78-HT or NLpep79-HT", "result": "improved luminescence over the other variants"}]}, {"molecule": "L149M (protein) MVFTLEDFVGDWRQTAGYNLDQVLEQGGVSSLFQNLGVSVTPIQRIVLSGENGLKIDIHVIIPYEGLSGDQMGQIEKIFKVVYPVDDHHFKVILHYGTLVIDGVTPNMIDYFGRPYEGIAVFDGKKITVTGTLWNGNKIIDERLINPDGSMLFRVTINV", "values": [{"measurement": "luminescence relative to wild-type, RLU(mutant)/RLU(WT)", "setting": "[…] [3]", "result": "2.89 RLU(mutant)/RLU(WT)"}, {"measurement": "luminescence relative to wild-type, RLU(mutant)/RLU(WT)", "setting": "[…] [4]", "result": "2.16 RLU(mutant)/RLU(WT)"}]}]}
